A short description of the data set: label from the status in PepcDB records.
Take “MKKWFPALLFSLCVSGESSAWNHNIVFYSLGNVNSYQGGNVVITQRPQFITSWRPGIATVTWNQCNGPEFADGSWAYYREYIAWVVFPKKVMTQNGYPLFIEVHNKGSWSEENTGDNDSYFFLKGYKWDERAFDAGNLCQKPGETTRLTEKFDDIIFKVALPADLPLGDYSVTIPYTSGIQRHFASYLGARFKIPYNVAKTLPRENEMLFLFKNIGGCRPSAQSLEIKHGDLSINSANNHYAAQTLSVSCDVPANIRFMLLRNTTPTYSHGKKFSVGLGHGWDSIVSVNGVDTGETTMRWYKAGTQNLTIGSRLYGESSKIQPGVLSGSATLLMILP”: the protein production entry was “failed”. Consider “MGDFIGSVWWMIVSLGVLVTFHEFGHFWVARRCGVKVLRFSVGFGKPLWMRRDRHGTEFVVAAIPLGGYVKMLDEREGDVHPAEQDQAFNRKTVWQRIAIVAAGPIANLLLCMAMLWAMFVVGKQDYSATVGRADGLAAEAGLTPGERIVRIDGRSVSSWSDASMQLTTAAMDRRDVRVLTASDTASSSEHTLRLSQLPVGFDERRVAALAGIGWQFMLQPPVIAEVVKGSVADGLLKPGDRIVAIDGQPIRSAEDIIPQVQALGAHGGPGMIEVARGEDRLALEIAPRKSPQGQWMIGVRPAAAPAPEYDSRQQYGLFAAVPAAIRETGRMTADSLGMMKRMLTGQASVKNISGPVTIARAANASAERGLDWFLYFLGLLSLSLAIINLMPIPILDGGHLLYYLIELIKGSPISERAMIAGQYVGLAALAGLMGLAFYNDILGLVPR”, for which the protein production entry is recorded as “failed”.

Turning to “MGNTTSDRVSGERHGAKAARSEGAGGHAPGKEHKIMVGSTDDPSVFSLPDSKLPGDKEFVSWQQDLEDSVKPTQQARPTVIRWSEGGKEVFISGSFNNWSTKIPLIKSHNDFVAILDLPEGEHQYKFFVDGQWVHDPSEPVVTSQLGTINNLIHVKKSDFEVFDALKLDSMESSETSCRDLSSSPPGPYGQEMYAFRSEERFKSPPILPPHLLQVILNKDTNISCDPALLPEPNHVMLNHLYALSIKDSVMVLSATHRYKKKYVTTLLYKPI”, the protein production entry is on record as “not failed”. The entry for “LKKLPAEIYLIDEQAKTSVQDFEYASYYHSSATVNTGTFNECRSADLVLFFQEEMSNESFSNEDNLALIKEKVKKMMATGFQGIVLVATAESNIVASLIKHFSGLPANQIITPG” is “failed”; for “TCIYKLADTVSDEYSLQKIIDFLSSTPQGKQAFQKRPQLGVVDLPKLHQLPTDTLGYVYADQMLQNNLQPLQSHEIDNDYQFFKTHITETHDLWHIVTGADTSILGEIQLEAFYVSQLYASRFWLALLAKNLLKAVIYDIELSTPYMDAISTGWVMAKQAKPLFGLEWNLLWEKPLADVRTSLNIILP” it is “failed”. The entry for “KEYNIVITGVGGQGILTAANILGWAALRAGYKVRVGEIHGMSQRFGSVIAYVRFGEEVYGAMVPEGKADVILSFEPVEALRYINYLKKGGLVFTNARPIPPVQVSMGIARYPSLEEIKRIVEEDFGGRFLAFDAEKLAIEAGHVVTTNVVLIGALTQTPGFPLSEDHVRDVIKLNVPPKAVEINMRAFDLGVKT” is “failed”. “MKVLTDLQKRIFAIVKKENGKPIPPGIVVRMMENQAGFPGKQQVYRAIDDLLEWHIFRKSGGATNQLLINYELADPVLDQKFQGILNLGNKNTGFVRPLDDDKTVYYIHFSNLAGALDGDLVEFCPLDKPQVGDKFDAAVLKIVKRSRVLYAGNFLIEYSDFGQEFRIVADNPRFYLTPIVNKASVPAELESNTKVAFQIDEYDPANNLCKVSIQQILGNNDEPLINLKAIMLDHSIVFEDNDVVEQQAAKLQFDEKEQSKPYRKDLTELAFVTIDPATSKDLDDAIYVKRTDKGFVLYVAIADVAYYVQRNSELDIEARHKTSSIYLPGYYVVPMLPERLSNELCSLNPNEKRYVVVCELNFDHEARLNFSEVYPATIVSQRRFAYSEVNDWLEDSDALKDESATVLESLKAGFTLSELIAEQRKKKGTIDLSHSETEVVVDQNYYPIEIRFLTHGKAETMIENLMVVANEAVAWTLTNHKVHLPYRVHPRPSKKKLQMLLENIVELKITQPNFVLDTVTSTQIAAWLKENKDNPSYDIFVILLLRTLGKAFYIVNPLIHFSIGSHHYTHFTSPIRRYADLTVHRLLWMNLFTPERFTDTEREQLNAELEQICETINDTEIKINGCERTANDYLTTLYLSKQVGQTFHGFISAITSFGIFMRMDENNFDGLIKITSIPEDFFVFEKDRMVLRGKRTNKVFRIGDRLTAKLTEIDTVQKRAILTLV”: the protein production result is “failed”.

In the case of “EAERVSVEHTSANPTGPLHIGRARNSIIGDSIYRILSRYGYRTVRQYFVNDSGKQMISLYTAYIKYGGPITIENLLENYQKIYREMEKDQSIEKEIEKNIERYENADPEVFGTLRKIAGVMLDGIASTLKRIGIEFDEFDWESDLLLNGSVRKAIDMLETKEEDSARYIEISGKKVFLTRKDGTTLYFARDIAYHLFKAENSEWIIDVLGEDHKDHAKSLNHVLKEMLKLENRVSFMYYSFITLETGKMSTRRGNIVTLQDLVDRTYDEALKIVNEKRPDLSEEERKKIAEVIASSAVRYSIIRVSAPKPITFRWEEALNFESNSAPFIMYS”, the protein production result is given as “failed”.

On to “MRNPFERMPTVLTADELIDKAFRRAEKAASSFKPRGNKVKKARLREELRVRTVSNVVRDNLRKVLERTPGLSTLPKFYQELVDVLVDRDTFHKAMAGIDWAIRIIRELEERYVERIRYSNDPNEIAELRRQFYGRVASVLRDIDDRLRYLNKAREVLKDLPVVDLEIPTVVIAGHPNVGKSTLLKALTTAKPEIASYPFTTRGINVGQFEDGYFRYQIIDTPGLLDRPISERNEIEKQAILALRYLGNLIIYIFDPSEHCGFPLEEQIHLFEEVHGEFKDLPFLVVINKIDVADEENIKRLEKFVKEKGLNPIKISALKGTGIDLVKEEIIKTLRPLAEKVAREKIERELRRYRSYLLEHHHHHH”, for which the protein production entry was “failed”.

“MTLVVPFDGSELAEAALVRAAEFGTVFEEDVLAVSVIRNGNAKYAREHDWIGPNEDFDLEAVVTSLHEQVIDLCPSSDFRHTVVDRYAPAGAVAKAIRKLAKREDASMVFIGSENAGHLVTSISSVGGSIASDDAYDVVIVRHRNPSKIAKLRNTSPHRQSKSDFYLPE”: the protein production entry is reported as “failed”. As for “MLNPEQVKRFLETAKQDPLYPAFLLALGTGLRRGEILGLRWQDLDLQKGILQVRQSLIRTREGLKFEEPKTEKSRRQIPLPPSVVAALKRHKAWVNQNKLILGPDYEDHDLVFPVENGRPRDPKGFAEYFNRLLDKAGLPHIRLHDLRHTHATLLLLEGVHPKVVQERLGHSTVSITLDIYSHILPGLQEKAAERIDGLLQPKENPSPKEGTIKLEHHHHHH”, the protein production result is “not failed”.

These data come from a protein production outcome set (Wang et al. 2014).
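Note: failed if final PepcDB status was selected cloned or expressed and not failed if soluble or beyond.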
